Reference: PMC5507636 (Science Advances, 2017)

Biological target: Streptococcus pyogenes Cas9 (Streptococcus pyogenes, UniProt Q99ZW2)
Test: cryo-EM structure

Sequence of Streptococcus pyogenes Cas9 (Q99ZW2 whole entry): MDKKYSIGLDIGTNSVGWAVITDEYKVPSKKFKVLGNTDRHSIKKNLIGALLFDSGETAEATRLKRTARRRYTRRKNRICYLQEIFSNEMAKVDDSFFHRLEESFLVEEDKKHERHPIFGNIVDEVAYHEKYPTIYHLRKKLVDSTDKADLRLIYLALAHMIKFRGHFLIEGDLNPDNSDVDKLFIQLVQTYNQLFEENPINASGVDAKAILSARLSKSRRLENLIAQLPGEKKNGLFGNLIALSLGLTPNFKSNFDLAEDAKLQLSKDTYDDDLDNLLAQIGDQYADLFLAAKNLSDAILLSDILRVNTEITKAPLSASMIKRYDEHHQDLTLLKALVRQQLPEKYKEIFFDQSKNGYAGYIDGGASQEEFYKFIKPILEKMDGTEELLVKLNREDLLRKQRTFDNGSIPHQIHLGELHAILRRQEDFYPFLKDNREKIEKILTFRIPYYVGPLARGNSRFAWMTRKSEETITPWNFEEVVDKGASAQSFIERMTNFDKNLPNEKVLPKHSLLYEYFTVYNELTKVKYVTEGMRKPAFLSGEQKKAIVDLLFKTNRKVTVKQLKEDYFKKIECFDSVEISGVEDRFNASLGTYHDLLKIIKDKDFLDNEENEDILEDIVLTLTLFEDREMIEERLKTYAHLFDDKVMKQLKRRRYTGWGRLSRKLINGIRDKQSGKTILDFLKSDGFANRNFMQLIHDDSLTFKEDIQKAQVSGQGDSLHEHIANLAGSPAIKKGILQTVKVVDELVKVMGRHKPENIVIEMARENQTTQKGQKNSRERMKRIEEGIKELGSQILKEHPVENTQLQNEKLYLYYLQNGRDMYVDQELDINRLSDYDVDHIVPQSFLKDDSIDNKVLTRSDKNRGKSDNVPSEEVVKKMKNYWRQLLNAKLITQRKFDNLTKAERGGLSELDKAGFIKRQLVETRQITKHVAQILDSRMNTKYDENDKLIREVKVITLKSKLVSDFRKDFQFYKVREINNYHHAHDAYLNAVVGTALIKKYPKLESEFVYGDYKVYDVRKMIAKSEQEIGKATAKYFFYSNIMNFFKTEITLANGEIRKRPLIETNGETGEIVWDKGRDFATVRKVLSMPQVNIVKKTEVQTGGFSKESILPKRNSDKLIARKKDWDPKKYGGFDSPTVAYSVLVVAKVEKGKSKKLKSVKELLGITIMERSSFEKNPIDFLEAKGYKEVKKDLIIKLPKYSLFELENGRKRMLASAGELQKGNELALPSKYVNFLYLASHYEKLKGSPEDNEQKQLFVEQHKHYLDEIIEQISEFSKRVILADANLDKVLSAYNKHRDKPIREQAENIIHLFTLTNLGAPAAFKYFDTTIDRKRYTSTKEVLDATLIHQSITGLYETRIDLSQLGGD

B1: anti-CRISPR protein AcrIIA4 (natural protein)
chain: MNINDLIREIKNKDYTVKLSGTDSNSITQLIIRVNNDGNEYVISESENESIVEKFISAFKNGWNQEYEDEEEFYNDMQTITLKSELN
stoichiometry N: 1
